Results taken from patent publication US20260008852A1 (CRYSTAL BIOSCIENCE, published 2026).

T1: his-tagged B7-H3 (UniProt Q5ZPR3-2 29-245, limits assumed)
T1 construct: also called CD276; not shown: His tag
T1 sequence (looked up): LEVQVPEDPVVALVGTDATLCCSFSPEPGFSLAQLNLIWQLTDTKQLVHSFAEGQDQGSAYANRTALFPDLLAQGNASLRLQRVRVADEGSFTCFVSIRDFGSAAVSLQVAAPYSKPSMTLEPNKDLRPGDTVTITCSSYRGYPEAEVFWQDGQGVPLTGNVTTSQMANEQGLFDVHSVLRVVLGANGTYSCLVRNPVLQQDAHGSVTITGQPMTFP


Target: T1, his-tagged B7-H3
Assay: SPR, Carterra LSA; binder captured by anti-human Fc, his-tagged B7-H3 injected
Procedure: Binding affinities of anti-B7-H3 antibodies to B7-H3 were measured by Surface Plasmon Resonance (SPR) on a Carterra LSA instrument. Goat anti-human Fc antibody was amine coupled to a HC30M chip. ScFv-Fc supernatants were diluted 30-fold with HBSTE and were captured by the anti-human Fc coupled HC30M chip. A 1:2 dilution series of his-tagged B7-H3, starting at 400 nM, was injected onto the chip for binding. Data was analyzed using the Carterra TM Kinetics software.

Row | Binder | Kd | kon | koff
1 | 40633p1.2.A8 scFv-Fc (scFv, V domains shown) VH: EVQLLESGGGLLQPGGSLRLSCAASGFSFSSYGMHWVRQAPGKGLEWVAAINSDGSRIYYADSVKGRFTISRDNSKNTLYLQMNSLRAEDTAVYYCTKYYYHYAMDVWGQGTTVTVSS VL: QSVLTQPPSASGTPGQRVTISCSGSRSDIGATTVNWYQQLPGTAPKLLIYQSHLRPSGVPDRFSGSKSGTSASLAISGLQSEDEADYYCASWDASLNTWVFGGGTKLTVL | 12.5 nM | 304000 M⁻¹ s⁻¹ | 
2 | 40633p1.2.G9 scFv-Fc (scFv, V domains shown) VH: EVQLLESGGGLLQPGGSLRLSCAASGFSFSSYGMHWVRQAPGKGLEWVAAINSDGSRIYYADSVEGRFTISRDNSKNTLYLQMNSLRAEDTAVYYCTKYYYHYAMDVWGQGTTVTVSS VL: QSVLTQPPSASGTPGQRVTISCSGSRSDIGATTVNWYQQLPGTAPKLLIYQSHLRPSGVPDRFSGSKSGTSASLAISGLQSEDEADYYCASWDASLNTWVFGGGTKLTVL | 10.8 nM | 325000 M⁻¹ s⁻¹ | 
3 | Benchmark MGA-271 (antibody, V domains shown) VH: EVQLVESGGGLVQPGGSLRLSCAASGFTFSSFGMHWVRQAPGKGLEWVAYISSDSSAIYYADTVKGRFTISRDNAKNSLYLQMNSLRDEDTAVYYCGRGRENIYYGSRLDYWGQGTTVTVSS VL: DIQLTQSPSFLSASVGDRVTITCKASQNVDTNVAWYQQKPGKAPKALIYSASYRYSGVPSRFSGSGSGTDFTLTISSLQPEDFATYYCQQYNNYPFTFGQGTKLEIK | 164 nM | 72000 M⁻¹ s⁻¹ | 0.01 s⁻¹
4 | 40633p1.1.H11 scFv-Fc (scFv, V domains shown, Tested as scFv-Fc supernatant) VH: EVQLLESGGGLVQPGGSLRLSCAASGFTFSSYPMTWVRQAPGKGLEWVADINSGGGTTLYADAVKGRFTISRDNSKNIVYLQMNSLRGEDTAVYYCAKHLDYYSYGMDVWGQGTTVTVSS VL: QSVLTQPPSASGTPGQRVTISCSGVTSKIGSKYVHWYQQLPGTAPKLLIYRNFERPSGVPDRFSGSTSGTSASLAISGLQSEDEADYYCATWEGALNGWVFGGGTKLTVL | 0.175 nM | 113000 M⁻¹ s⁻¹ | 
5 | 40633p1.2.D1 scFv-Fc (scFv, V domains shown, Tested as scFv-Fc supernatant) VH: EVQLLESGGGLVQPGGSLRLSCAASGFTFDVYGMSWVRQAPGKGLEWVSAINWNGGSTYYADSVKGRFTISRDNSENTLYLQMNSLRAEDTAVYYCAKEKWKHFIYYGMDVWGQGTTVTVSS VL: QSVLTQPASASGTPGQTVSISCSGSSSNIDSNTANWYQQLPGTAPKLLIYSNNQRPSGVPDRFSGSKSDTSASLAISGLQSEDEGDYYCSAWDDNLNGWLFGGGTKLTVL | 39.8 nM | 392000 M⁻¹ s⁻¹ | 0.02 s⁻¹
6 | 40633p1.2.E5 scFv-Fc (scFv, V domains shown, Tested as scFv-Fc supernatant) VH: EVQLLESGGGLVQPGGSLRLSCAASGFTFDGYGMSWVRQAPGKGLEWVSAISGNSGSIYYADSVKGRFTISRDNSKNTLYLQMNSLRAEDTAAYYCAKEKWKHFIYYGMDVWGQGTTVTVSS VL: not shown | 40.2 nM | 389000 M⁻¹ s⁻¹ | 0.02 s⁻¹
7 | 40633p1.2.E11 scFv-Fc (scFv, V domains shown) VH: EVQLLESGGGLVQPGGSLRLSCAASGFSFSNYDMSWVRQAPGKGLEWVAGIRSGSRTYYADSVKGRFTISRDNSKNTLYLQMNSLRAEDTATYYCGRYFNMDVWGQGTTVTVSS VL: QSVLTQPPSASGTPGQRVTISCSGSTFNIGTNLVHWYQQLPGTAPKLLIYLTDRRPPGVPDRFSGSKSGTSASLAISGLQSEDEANYYCATWDDSLNSFLFGGGTKLTVL | 1.11 nM | 134000 M⁻¹ s⁻¹ | 
8 | 40633p1.2.D11 scFv-Fc (scFv, V domains shown, Tested as scFv-Fc supernatant) VH: EVQLESGGGLVQPGGSLRLSCAASGFTVSYYGMSWVRQAPGKGLEWVSAIKQDGSEKYYADSVKGRFTISRDNSKNTLYLQMNSLRAEDTAVYYCARHWNDYSNAMNVWGQGTTVTVSS VL: QSVLTQPPSASGTPGQRVTISCSGSTSNIAIDFVNWYQQLPGTAPKLLIYTIDQRPSGVPDRFSGSKSGTSASLAISGLQSEDEAVYYCASWDASLNGWVFGRGTKLTVL | 307 nM | 241000 M⁻¹ s⁻¹ | 0.07 s⁻¹
